{"source": "patent US20180312587A1", "about": "(ADURO BIOTECH HOLDINGS EUROPE B V, published 2018)", "binders": {"B1": {"name": "KWAR23 (antibody, V domains shown)", "VH": "EVQLQQSGAELVKPGASVKLSCTASGFNIKDYYIHWVQQRTEQGLEWIGRIDPEDGETKYAPKFQDKATITADTSSNTAYLHLSSLTSEDTAVYYCARWGAYWGQGTLVTVSS", "VL": "QIVLTQSPAIMSASPGEKVTLTCSASSSVSSSYLYWYQQKPGSSPKLWIYSTSNLASGVPARFSGSGSGTSYSLTISSMEAEDAASYFCHQWSSYPRTFGAGTKLELK"}, "B2": {"name": "hSIRPα.40A (antibody, mouse IgG1, kappa, V domains shown)", "VH": "EVQFQQSGTVLARPGTSVKMSCKASGSTFTSYWMHWVKQGPGQGLQWIGAIYPVNNDTTYNQKFKGKAELTVVTSTSTAYMEVSSLTNEDSAVYYCTRSFYYSLDAAWFVYWGQGTLVTVSA", "VL": "DIQMTQSPSSLSASLGERVSLTCRASQDIGSRLNWLQQEPDGTIKRLIYATSSLDSGVPKRFSGSRSGSDYSLTISGLESEDFVDYYCLQYASSPFTFGGGTKLEINR", "notes": "mouse antibody, full chains without signal peptide; also called mouse hSIRPα.40A"}, "B3": {"name": "hSIRPα.50A (antibody, V domains shown)", "VH": "QVQLQQSGPELVKPGASVRISCKASGFTFTNYYIHWVKQRPGQGLEWIGWIYPGNVNTKYNEKFKAKATLTADKSSTTAYMQLSSLASEDSAVYFCARPTIIATDFDVWGAGTTVTVSS", "VL": "DIVMTQSHKFMSTSVGDRVNITCKASQGVGTAVGWYQQKPGQSPRLLIYWASTRHTGVPDRFTGSGSGTDFSLAISNVQSEDLADYFCQQYSTYPFTFGGGTNLEIK", "notes": "light chain constant domain not tied; also called mouse hSIRPα.50A; hSIRPα.50A.mIgG1"}}, "key": {"human SIRPβ1": {"molecular_target": "T1, human SIRPβ1 (human, UniProt O00241 30-398)", "T1 construct": "also called hSIRPβ1", "T1 sequence (O00241 30-398 limits assumed)": "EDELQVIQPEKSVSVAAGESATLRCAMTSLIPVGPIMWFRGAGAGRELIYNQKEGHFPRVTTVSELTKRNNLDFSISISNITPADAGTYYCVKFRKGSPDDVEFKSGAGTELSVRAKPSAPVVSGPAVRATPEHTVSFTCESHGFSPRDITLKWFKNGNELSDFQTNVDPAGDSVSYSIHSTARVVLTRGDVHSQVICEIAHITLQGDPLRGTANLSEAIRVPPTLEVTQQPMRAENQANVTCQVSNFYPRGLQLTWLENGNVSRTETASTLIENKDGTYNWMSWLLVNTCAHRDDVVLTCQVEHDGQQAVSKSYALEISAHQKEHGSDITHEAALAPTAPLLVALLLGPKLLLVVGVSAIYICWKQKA", "assay": "CELISA, CHO-K1 transfectants", "description": "(§1) The specificity of monoclonal anti-hSIRPα antibodies (e.g., including the hSIRPα antibodies known in the art, KWAR23 ([…]. Patent CA2939293 A1), 18D5 (Patent WO2017/178653 A2), and various commercially available hSIRPα antibodies) for binding to hSIRPαV1, hSIRPαV1(P74A), and hSIRPβ1 was evaluated by CELISA. Reactivity was confirmed using CHO-K1 cells (ATCC CCL-61) expressing a cDNA encoding the full length open reading frame of hSIRPαV1, hSIRPαV1(P74A), and hSIRPβ1 subcloned into the pCI-neo vector (Promega, Madison, Wis.). CHO-K1.hSIRPαV1, CHO-K1.hSIRPαV1(P74A), and CHO-K1.hSIRPβ1 cells were seeded in culture medium (DMEM-F12 (Gibco) supplemented with 5% New Born Calf Serum (BioWest) and Pen/Strep (Gibco)) in 96-well flat-bottom tissue culture plates and incubated at 37° C., 5% CO₂ and 95% humidity for 24 hours. Subsequently, culture medium was removed and cells were incubated for 1 hour at 37° C., 5% CO₂ and 95% humidity with purified hSIRPα antibodies (used at 10 μg/ml and dilutions thereof). Next, cells were washed with PBS-T and incubated for 1 hour at 37° C., 5% CO₂ and 95% humidity with either goat-anti-mouse IgG-HRP (Southern Biotech), goat-anti-human IgG-HRP (Jackson Immuno Research), or goat-anti-rabbit IgG-HRP (Southern Biotech). Subsequently, cells were washed three times with PBS-T and immunoreactivity against hSIRPαV1, hSIRPαV1(P74A), and hSIRPβ1 was visualized with TMB Stabilized Chromogen (Invitrogen). Reactions were stopped with 0.5 M H₂SO₄ and absorbances were read at 450 and 610 nm."}, "hSIRPαV1(P74A)": {"molecular_target": "T2, hSIRPαV1(P74A) (human, UniProt P78324 31-504)", "T2 construct": "also called P74A variant of hSIRPαV1", "T2 sequence (P78324 31-504 P74A limits assumed)": "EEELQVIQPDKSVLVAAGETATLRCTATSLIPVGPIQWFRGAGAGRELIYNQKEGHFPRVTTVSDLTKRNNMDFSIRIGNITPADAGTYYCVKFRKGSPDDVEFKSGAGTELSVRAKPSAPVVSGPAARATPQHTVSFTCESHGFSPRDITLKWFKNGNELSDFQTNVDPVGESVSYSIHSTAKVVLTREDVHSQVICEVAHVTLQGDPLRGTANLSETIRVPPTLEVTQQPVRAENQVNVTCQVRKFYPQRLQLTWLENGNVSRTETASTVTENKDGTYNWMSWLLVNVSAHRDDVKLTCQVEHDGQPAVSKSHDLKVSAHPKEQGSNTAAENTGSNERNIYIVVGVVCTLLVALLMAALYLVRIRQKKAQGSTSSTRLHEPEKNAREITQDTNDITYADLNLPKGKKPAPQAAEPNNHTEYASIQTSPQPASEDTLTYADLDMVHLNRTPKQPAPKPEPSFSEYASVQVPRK", "assay": "CELISA, CHO-K1 transfectants", "description": "as §1"}, "[1]": {"molecular_target": "T3, hSIRPα expressed on primary human cells (human, UniProt P78324 31-504)", "T3 construct": "whole, on cells; also called hSIRPα on primary human CD14+ monocytes; on primary human granulocytes", "T3 sequence (P78324 31-504)": "as the sequence (P78324 31-504 P74A limits assumed) above, with A44P counted along it", "assay": "flow cytometry on CD14+ enriched monocytes, human donor 2, AF647 goat-anti-mouse IgG", "description": "Next, the binding of hSIRPα.40A to hSIRPα expressed on primary human CD14⁺ monocytes was investigated. In addition, the ability of hSIRPα.40A to block the interaction between hSIRPα and recombinant hCD47/Fc-protein was assessed. For this purpose, CD14+ monocytes were isolated from Ficoll-purified human peripheral blood mononuclear cells (PBMCs) using RosetteSep human monocyte enrichment cocktail (Stemcell). The percentage of monocytes present after the enrichment was determined by flow cytometry on the FACSVerse (BD Biosciences) based on CD14 staining using an APC-Cy7-conjugated mouse-anti-human CD14 detection antibody (BD Biosciences). […] After this labeling procedure, cells were washed two times, resuspended in PBS/1% BSA containing 0.1 μg/mL DAPI (BioLegend), and analysed by flow cytometry on the FACSVerse (BD Biosciences). Data were processed and analysed with FlowJo V10 software (FlowJo, LLC).\nTo assess the blocking ability of hSIRPα.40A, CD14+ enriched monocytes cells were seeded in 96-well round bottomed tissue culture plates and incubated for 45 minutes with FcR Blocking Reagent (Miltenyi Biotec) and hSIRPα.40A antibody (20 μg/mL and dilutions thereof) in PBS/1% BSA at 4° C. […] After this labeling procedure, cells were washed two times, resuspended in PBS/1% BSA containing 0.1 μg/mL DAPI (BioLegend), and analysed by flow cytometry on the FACSVerse (BD Biosciences). […]"}, "[2]": {"molecular_target": "T3, hSIRPα expressed on primary human cells", "assay": "flow cytometry on CD14+ enriched monocytes, human donor 2; blocked ligand: DyLight 488-labeled recombinant hCD47/Fc", "description": "To assess the blocking ability of hSIRPα.40A, CD14+ enriched monocytes cells were seeded in 96-well round bottomed tissue culture plates and incubated for 45 minutes with FcR Blocking Reagent (Miltenyi Biotec) and hSIRPα.40A antibody (20 μg/mL and dilutions thereof) in PBS/1% BSA at 4° C. […] After this labeling procedure, cells were washed two times, resuspended in PBS/1% BSA containing 0.1 μg/mL DAPI (BioLegend), and analysed by flow cytometry on the FACSVerse (BD Biosciences). Data were processed and analysed with FlowJo V10 software (FlowJo, LLC). […] IC50 values represent the concentration at which half of the inhibition is observed."}, "[3]": {"molecular_target": "T4, hSIRPβ1 transcript variant 3/hSIRPβL (human, UniProt Q5TFQ8 30-398)", "T4 construct": "also called human SIRPβL", "T4 sequence (Q5TFQ8 30-398 limits assumed, change not shown)": "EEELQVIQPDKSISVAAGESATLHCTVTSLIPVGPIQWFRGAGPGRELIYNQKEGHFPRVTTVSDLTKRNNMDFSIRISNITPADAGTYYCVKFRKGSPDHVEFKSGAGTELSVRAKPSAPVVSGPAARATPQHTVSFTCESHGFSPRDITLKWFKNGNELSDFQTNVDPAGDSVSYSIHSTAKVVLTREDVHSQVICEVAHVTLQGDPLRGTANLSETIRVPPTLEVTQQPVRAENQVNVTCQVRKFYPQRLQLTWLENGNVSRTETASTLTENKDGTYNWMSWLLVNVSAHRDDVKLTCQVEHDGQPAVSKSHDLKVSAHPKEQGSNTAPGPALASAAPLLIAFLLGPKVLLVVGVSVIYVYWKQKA", "assay": "CELISA, CHO-K1 transfectants; average of two experiments", "description": "The binding specificity of antibodies hSIRPα.40A and hSIRPα.50A to hSIRPα were compared in a CELISA format. In short, CHO-K1 cells were transiently transfected with hSIRPαV1, hSIRPαV2, hSIRPβ1, hSIRPβL, and hSIRPγ cDNAs. Subsequently, hSIRPα binding was assessed by CELISA using CHO-K1.hSIRPαV1, CHO-K1.hSIRPαV2, CHO-K1.hSIRPβ1, CHO-K1.hSIRPβL, and CHO-K1.hSIRPγ cells. Detection of bound antibody was done with goat-anti-mouse IgG-HRP (Southern Biotech)."}}, "data": [{"binder": "B1", "values": [{"measurement": "EC50", "setting": "human SIRPβ1", "value": 0.065, "unit": "nM"}, {"measurement": "EC50", "setting": "hSIRPαV1(P74A)", "value": 0.077, "unit": "nM"}]}, {"binder": "B2", "values": [{"measurement": "EC50 (read off the curve)", "setting": "[1]", "value": "~0.7", "unit": "nM"}, {"measurement": "IC50 (read off the curve)", "setting": "[2]", "value": "~0.5", "unit": "nM"}]}, {"binder": "B3", "values": [{"measurement": "EC50", "setting": "[3]", "value": 0.632, "unit": "nM"}]}]}
